# ± gives the uncertainty stated by the source.
# Test: self-splicing fitness, log relative to wild type (ln ratio); higher = more splicing; Tetrahymena group I intron in knt gene, E. coli kanamycin selection, DiMSum; sequences stand for … in CUCUCU…GGAGGGAAAAGUUAUCAGGCAUGCACCUGGUAGCUAGUCUUUAAACCAAUAGAUUGCAUCGGUUUAAAAGGCAAGACCGUCAAAUUGCGGGAAAGGGGUCAACAGCCGUUCAGUACCAAGUCUCAGGGGAAACUUUGAGAUGGCCUUGCAAAGGGUAUGGUAAUAAGCUGACGGACAUGGUCCUAACCACGCAGCCAAGUCCUAAGUCAACAGAUCUUCUGUUGAUAUGGAUGCAGUUCACAGACUAAAUGUCGGUCGGGGAAGAUGUAUUCUUCUCAUAAGAUAUAGUCGGACCUCUCCUUAAUGGGAGCUAGCGGAUGAAGUGAUGCAACACUGGAGCCGCUGGGAACUAAUUUGUAUGCGAAAGUAUAUUGAUUAGUUUUGGAGUACUCGUGGUCG
# Procedure, shortened: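 Pooled colonies went to amplicon sequencing on an Illumina HiSeq 2500 after six replicate transformations. The plates were LB agar with 100 μg/mL carbenicillin, 50 μM IPTG and 0.2% rhamnose, with or without 25 μg/mL kanamycin, incubated overnight at 37°C or 30°C. The E. coli BL21(DE3) library had all eight P1ex-region intron nucleotides randomised, the intron placed in the knt kanamycin-resistance gene on pET-22b(+). DiMSum fitness is the error-weighted combination of replicate fold changes, kanamycin against none, normalised to wild type.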
Sequence,self-splicing fitness (ln) (30 °C),self-splicing fitness (ln) (37 °C)
ACUGAGCAAUAUUACGUAUG,-3.4 ± 0.15,-1.08 ± 0.14
GCGGAGCAAUAUUACGGAUC,-0.472 ± 0.083,-0.528 ± 0.17
AUCGAGCAAUAUUACGAAUU,-3.57 ± 0.25,-2.1 ± 0.2
CUCCAGCAAUAUUACGUGCU,-3.06 ± 0.11,-2.58 ± 0.14
GAAGAGCAAUAUUACGGUCA,-2.72 ± 0.34,-2.05 ± 0.23
CCUCAGCAAUAUUACGGCGU,-3.42 ± 0.21,-2.64 ± 0.27
GACUAGCAAUAUUACGUAUA,-1.01 ± 0.11,-0.555 ± 0.13
UAGUAGCAAUAUUACGGCGG,-0.668 ± 0.085,-0.639 ± 0.11
CAUCAGCAAUAUUACGAGGG,-2.04 ± 0.13,-0.928 ± 0.12
CUAAAGCAAUAUUACGUUUC,-3.78 ± 0.18,-2.69 ± 0.23
UGGCAGCAAUAUUACGUGGG,-2.8 ± 0.1,-2.02 ± 0.11
UUUCAGCAAUAUUACGUCAC,-3.13 ± 0.43,-2.86 ± 0.35
GCAAAGCAAUAUUACGAGCU,-3.48 ± 0.16,-1.5 ± 0.12
GAAUAGCAAUAUUACGUGUU,-2.18 ± 0.12,-0.873 ± 0.1
UGCAAGCAAUAUUACGGAGG,-3.21 ± 0.19,-1.42 ± 0.16
UAUCAGCAAUAUUACGACGA,-0.537 ± 0.1,-0.425 ± 0.11
GGAGAGCAAUAUUACGACGA,-2.34 ± 0.21,-2.08 ± 0.3
AGAAAGCAAUAUUACGGUUA,-0.628 ± 0.1,-0.679 ± 0.083
AUCAAGCAAUAUUACGGGCG,-1.34 ± 0.06,-0.467 ± 0.079
AGACAGCAAUAUUACGAGGA,-3.17 ± 0.22,-0.745 ± 0.17
AAACAGCAAUAUUACGGAGA,-2.87 ± 0.15,-2.57 ± 0.15

Sequence,self-splicing fitness (ln) (30 °C),self-splicing fitness (ln) (37 °C)
AAGAAGCAAUAUUACGAACU,-0.3 ± 0.091,0.86 ± 0.11
CUGAAGCAAUAUUACGAUUA,-2.6 ± 0.2,-2.84 ± 0.29
AUCAAGCAAUAUUACGUCGC,-4 ± 0.2,-2.65 ± 0.11
CACUAGCAAUAUUACGAGUA,-1.34 ± 0.096,-0.6 ± 0.076
UUUUAGCAAUAUUACGGGGG,-3.07 ± 0.41,-2.25 ± 0.31
GAUAAGCAAUAUUACGCACG,-1.16 ± 0.13,-0.4 ± 0.17
AAUUAGCAAUAUUACGCGAC,-2.66 ± 0.21,-1.61 ± 0.24
GACUAGCAAUAUUACGUGGU,-3.39 ± 0.13,-2.73 ± 0.15
CGGAAGCAAUAUUACGCCGC,-2.96 ± 0.28,-2.51 ± 0.35
ACGUAGCAAUAUUACGAGGC,–,-2.11 ± 0.39
AGCAAGCAAUAUUACGCCGC,-2.89 ± 0.45,-2.68 ± 0.45
GUAAAGCAAUAUUACGGGCG,-0.457 ± 0.12,-0.386 ± 0.12
GUCAAGCAAUAUUACGCCUA,-0.294 ± 0.12,0.0798 ± 0.093
AGUCAGCAAUAUUACGUUCG,-1.9 ± 0.13,-1.46 ± 0.15
AGUUAGCAAUAUUACGGGUG,-3.86 ± 0.25,-1.64 ± 0.21
CACUAGCAAUAUUACGACGG,-0.0504 ± 0.083,-0.117 ± 0.082
ACCGAGCAAUAUUACGAUGG,-2.27 ± 0.094,-1.39 ± 0.11
ACACAGCAAUAUUACGGUUC,-3.81 ± 0.14,-2.03 ± 0.12
GUCGAGCAAUAUUACGGAUG,-1.27 ± 0.095,-0.69 ± 0.13
GUGAAGCAAUAUUACGCUAG,-0.945 ± 0.14,0.0205 ± 0.23
GUACAGCAAUAUUACGACCG,-2.47 ± 0.19,-0.419 ± 0.14

# Reference: the supplement of paper PMC7877785
